This note sets out measurements from patent US20200223889A1 (Novo Nordisk, published 2020).

Positions of bridges follow the written chain, without caps; N, C: chain ends. Non-standard residues stand in square brackets, D forms with d. Hyp = O=C(O)[C@@H]1C[C@@H](O)CN1; Pen = CC(C)(S)[C@H](N)C(=O)O; Orn = NCCC[C@H](N)C(=O)O; Thz = O=C(O)[C@@H]1CSCN1; Dab = NCC[C@H](N)C(=O)O; Aib = CC(C)(N)C(=O)O

Test [1] has as its target human melanocortin 1 receptor (human, UniProt Q01726 1-317). The experiment in a line: cell-based or functional assay.
Test [2] concerns the target human melanocortin 4 receptor (human, UniProt P32245 1-332). Briefly: cell-based or functional assay.

Chain of human melanocortin 1 receptor (Q01726 whole entry): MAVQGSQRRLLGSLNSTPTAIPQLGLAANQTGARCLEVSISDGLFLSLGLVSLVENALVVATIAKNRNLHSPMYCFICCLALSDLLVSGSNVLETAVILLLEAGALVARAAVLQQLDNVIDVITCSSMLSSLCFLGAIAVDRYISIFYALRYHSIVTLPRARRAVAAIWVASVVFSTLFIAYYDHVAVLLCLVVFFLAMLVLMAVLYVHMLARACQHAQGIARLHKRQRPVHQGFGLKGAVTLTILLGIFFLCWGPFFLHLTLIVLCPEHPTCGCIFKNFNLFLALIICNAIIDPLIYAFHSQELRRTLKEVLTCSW
Chain of human melanocortin 4 receptor (P32245 whole entry): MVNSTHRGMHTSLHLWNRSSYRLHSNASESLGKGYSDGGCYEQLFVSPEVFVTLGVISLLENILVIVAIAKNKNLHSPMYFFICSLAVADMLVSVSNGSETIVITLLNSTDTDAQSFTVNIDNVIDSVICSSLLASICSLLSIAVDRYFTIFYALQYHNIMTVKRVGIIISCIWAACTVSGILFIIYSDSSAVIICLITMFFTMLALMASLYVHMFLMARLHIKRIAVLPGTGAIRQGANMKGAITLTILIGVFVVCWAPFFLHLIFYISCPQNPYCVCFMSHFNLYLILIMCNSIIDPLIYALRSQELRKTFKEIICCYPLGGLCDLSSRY

B1: Chem. 46 (peptide)
peptide: cyclo(C[Aib]H[dF][Dab]WC[Aib]H[dF][Dab]W)
modifications: disulfide 1-7
SMILES: CC1(C)NC(=O)[C@@H]2CSSC[C@H](NC(=O)[C@H](Cc3c[nH]c4ccccc34)NC(=O)[C@H](CCN)NC(=O)[C@@H](Cc3ccccc3)NC(=O)[C@H](Cc3c[nH]cn3)NC1=O)C(=O)NC(C)(C)C(=O)N[C@@H](Cc1c[nH]cn1)C(=O)N[C@H](Cc1ccccc1)C(=O)N[C@@H](CCN)C(=O)N[C@@H](Cc1c[nH]c3ccccc13)C(=O)N2
As for B1, the “MC1R cAMP EC50” value in test [1] was greater than 5.5 nM.

B2: Chem. 34 (peptide)
peptide: cyclo(C[dV]H[dF]RWC[dV]H[dF]RW)
modifications: disulfide 1-7
SMILES: CC(C)[C@H]1NC(=O)[C@@H]2CSSC[C@H](NC(=O)[C@H](Cc3c[nH]c4ccccc34)NC(=O)[C@H](CCCNC(=N)N)NC(=O)[C@@H](Cc3ccccc3)NC(=O)[C@H](Cc3c[nH]cn3)NC1=O)C(=O)N[C@H](C(C)C)C(=O)N[C@@H](Cc1c[nH]cn1)C(=O)N[C@H](Cc1ccccc1)C(=O)N[C@@H](CCCNC(=N)N)C(=O)N[C@@H](Cc1c[nH]c3ccccc13)C(=O)N2
On to B2, for which, in test [1], the “MC1R cAMP EC50” value came to 2.6 nM.

B3: Chem. 113 (peptide)
peptide: cyclo(C[Thz]H[dF]HWCARERR)
modifications: disulfide 1-7
SMILES: C[C@@H]1NC(=O)[C@@H]2CSSC[C@H](NC(=O)[C@H](CCCNC(=N)N)NC(=O)[C@H](CCCNC(=N)N)NC(=O)[C@H](CCC(=O)O)NC(=O)[C@H](CCCNC(=N)N)NC1=O)C(=O)N1CSC[C@H]1C(=O)N[C@@H](Cc1c[nH]cn1)C(=O)N[C@H](Cc1ccccc1)C(=O)N[C@@H](Cc1c[nH]cn1)C(=O)N[C@@H](Cc1c[nH]c3ccccc13)C(=O)N2
B3: the “MC4R cAMP EC50” value in test [2] was 0.02 nM. Also, the “MC1R cAMP EC50” value in test [1] is 42.2 nM.

B4: Chem. 21 (peptide)
peptide: CAHFXWCAHFXW
modifications: D-Phe 4, 10; Arg(NO2) 5, 11; disulphide Cys1-Cys7; head-to-tail amide Cys1-Trp12
B4: in test [1], the “MC1R cAMP EC50” value is greater than 4 nM.

B5: Chem. 117 (peptide)
peptide: cyclo(C[Thz]H[dF]HW[Pen]KKAAW)
modifications: disulfide 1-7
SMILES: C[C@@H]1NC(=O)[C@H](C)NC(=O)[C@H](CCCCN)NC(=O)[C@H](CCCCN)NC(=O)[C@H]2NC(=O)[C@H](Cc3c[nH]c4ccccc34)NC(=O)[C@H](Cc3c[nH]cn3)NC(=O)[C@@H](Cc3ccccc3)NC(=O)[C@H](Cc3c[nH]cn3)NC(=O)[C@@H]3CSCN3C(=O)[C@H](CSSC2(C)C)NC(=O)[C@H](Cc2c[nH]c3ccccc23)NC1=O
On to B5, for which the “MC4R cAMP EC50” value in test [2] worked out at 0.2 nM. Further, the “MC1R cAMP EC50” value in test [1] stood at 168 nM.

B6: Chem. 116 (peptide)
peptide: cyclo(C[Thz]H[dF]HWC[Orn][Orn]AAW)
modifications: disulfide 1-7
SMILES: C[C@@H]1NC(=O)[C@H](C)NC(=O)[C@H](CCCN)NC(=O)[C@H](CCCN)NC(=O)[C@@H]2CSSC[C@H](NC(=O)[C@H](Cc3c[nH]c4ccccc34)NC1=O)C(=O)N1CSC[C@H]1C(=O)N[C@@H](Cc1c[nH]cn1)C(=O)N[C@H](Cc1ccccc1)C(=O)N[C@@H](Cc1c[nH]cn1)C(=O)N[C@@H](Cc1c[nH]c3ccccc13)C(=O)N2
Regarding B6, the “MC4R cAMP EC50” value in test [2] stood at 0.12 nM. Also, the “MC1R cAMP EC50” value in test [1] came to 231 nM.

B7: Chem. 6 (peptide)
peptide: cyclo(CH[dF]RW[dA]CH[dF]RW[dA])
modifications: disulfide 1-7
SMILES: C[C@H]1NC(=O)[C@H](Cc2c[nH]c3ccccc23)NC(=O)[C@H](CCCNC(=N)N)NC(=O)[C@@H](Cc2ccccc2)NC(=O)[C@H](Cc2c[nH]cn2)NC(=O)[C@@H]2CSSC[C@H](NC1=O)C(=O)N[C@@H](Cc1c[nH]cn1)C(=O)N[C@H](Cc1ccccc1)C(=O)N[C@@H](CCCNC(=N)N)C(=O)N[C@@H](Cc1c[nH]c3ccccc13)C(=O)N[C@H](C)C(=O)N2
As to B7, the “MC1R cAMP EC50” value in test [1] was 2.35 nM.

B8: Chem. 41 (peptide)
peptide: CXHFXWCXHFXW
modifications: Aib 2, 8; D-Phe 4, 10; Cit 5, 11; disulphide Cys1-Cys7; head-to-tail amide Cys1-Trp12
B8: in test [1], the “MC1R cAMP EC50” value was 137 nM.

B9: Chem. 33 (peptide)
peptide: cyclo(C[dP]H[dF]RWC[dP]H[dF]RW)
modifications: disulfide 1-7
SMILES: N=C(N)NCCC[C@@H]1NC(=O)[C@@H](Cc2ccccc2)NC(=O)[C@H](Cc2c[nH]cn2)NC(=O)[C@H]2CCCN2C(=O)[C@@H]2CSSC[C@H](NC(=O)[C@H](Cc3c[nH]c4ccccc34)NC1=O)C(=O)N1CCC[C@@H]1C(=O)N[C@@H](Cc1c[nH]cn1)C(=O)N[C@H](Cc1ccccc1)C(=O)N[C@@H](CCCNC(=N)N)C(=O)N[C@@H](Cc1c[nH]c3ccccc13)C(=O)N2
In the case of B9, in test [1], the “MC1R cAMP EC50” value is greater than 1 nM.

B10: Chem. 86 (peptide)
peptide: cyclo(C[dK]H[dF]HWC[dK]H[dF]HW)
modifications: disulfide 1-7
SMILES: NCCCC[C@H]1NC(=O)[C@@H]2CSSC[C@H](NC(=O)[C@H](Cc3c[nH]c4ccccc34)NC(=O)[C@H](Cc3c[nH]cn3)NC(=O)[C@@H](Cc3ccccc3)NC(=O)[C@H](Cc3c[nH]cn3)NC1=O)C(=O)N[C@H](CCCCN)C(=O)N[C@@H](Cc1c[nH]cn1)C(=O)N[C@H](Cc1ccccc1)C(=O)N[C@@H](Cc1c[nH]cn1)C(=O)N[C@@H](Cc1c[nH]c3ccccc13)C(=O)N2
Regarding B10, in test [1], the “MC1R cAMP EC50” value worked out at 147 nM.

B11: Chem. 43 (peptide)
peptide: CXHFXWCXHFXW
modifications: Aib 2, 8; D-Phe 4, 10; AGP 5, 11; disulphide Cys1-Cys7; head-to-tail amide Cys1-Trp12
In the case of B11, in test [1], the “MC1R cAMP EC50” value came out at 46.9 nM.

B12: Chem. 115 (peptide)
peptide: cyclo(C[Thz]H[dF]HWCK[Orn]AAW)
modifications: disulfide 1-7
SMILES: C[C@@H]1NC(=O)[C@H](C)NC(=O)[C@H](CCCN)NC(=O)[C@H](CCCCN)NC(=O)[C@@H]2CSSC[C@H](NC(=O)[C@H](Cc3c[nH]c4ccccc34)NC1=O)C(=O)N1CSC[C@H]1C(=O)N[C@@H](Cc1c[nH]cn1)C(=O)N[C@H](Cc1ccccc1)C(=O)N[C@@H](Cc1c[nH]cn1)C(=O)N[C@@H](Cc1c[nH]c3ccccc13)C(=O)N2
On to B12, for which, in test [2], the “MC4R cAMP EC50” value was found to be 0.1 nM. Moreover, in test [1], the “MC1R cAMP EC50” value was 134 nM.

B13: Chem. 114 (peptide)
peptide: cyclo(C[Thz]H[dF]HWCKA[dK]AW)
modifications: disulfide 1-7
SMILES: C[C@@H]1NC(=O)[C@H](CCCCN)NC(=O)[C@@H]2CSSC[C@H](NC(=O)[C@H](Cc3c[nH]c4ccccc34)NC(=O)[C@H](C)NC(=O)[C@@H](CCCCN)NC1=O)C(=O)N1CSC[C@H]1C(=O)N[C@@H](Cc1c[nH]cn1)C(=O)N[C@H](Cc1ccccc1)C(=O)N[C@@H](Cc1c[nH]cn1)C(=O)N[C@@H](Cc1c[nH]c3ccccc13)C(=O)N2
Regarding B13, the “MC4R cAMP EC50” value in test [2] was found to be 0.04 nM. Besides, the “MC1R cAMP EC50” value in test [1] was 114 nM.

B14: Chem. 38 (peptide)
peptide: cyclo(C[Aib][Hyp][dF]RWC[Aib][Hyp][dF]RW)
modifications: disulfide 1-7
SMILES: CC1(C)NC(=O)[C@@H]2CSSC[C@H](NC(=O)[C@H](Cc3c[nH]c4ccccc34)NC(=O)[C@H](CCCNC(=N)N)NC(=O)[C@@H](Cc3ccccc3)NC(=O)[C@@H]3C[C@@H](O)CN3C1=O)C(=O)NC(C)(C)C(=O)N1C[C@H](O)C[C@H]1C(=O)N[C@H](Cc1ccccc1)C(=O)N[C@@H](CCCNC(=N)N)C(=O)N[C@@H](Cc1c[nH]c3ccccc13)C(=O)N2
Regarding B14, the “MC1R cAMP EC50” value in test [1] is greater than 3.7 nM.
